Positions count from the first letter of the chain named.
B1: 268— Asn (protein, UniProt P62694 18-513, looked up, variant R268N)
Exoglucanase 1: QSACTLQSETHPPLTWQKCSSGGTCTQQTGSVVIDANWRWTHATNSSTNCYDGNTWSSTLCPDNETCAKNCCLDGAAYASTYGVTTSGNSLSIGFVTQSAQKNVGARLYLMASDTTYQEFTLLGNEFSFDVDVSQLPCGLNGALYFVSMDADGGVSKYPTNTAGAKYGTGYCDSQCPRDLKFINGQANVEGWEPSSNNANTGIGGHGSCCSEMDIWEANSISEALTPHPCTTVGQEICEGDGCGGTYSDNNYGGTCDPDGCDWNPYRLGNTSFYGPGSSFTLDTTKKLTVVTQFETSGAINRYYVQNGVTFQQPNAELGSYSGNELNDDYCTAEEAEFGGSSFSDKGGLTQFKKATSGGMVLVMSLWDDYYANMLWLDSTYPTNETSSTPGAVRGSCSTSSGVPAQVESQSPNAKVTFSNIKFGPIGSTGNPSGGNPPGGNRGTTTTRRPATTTGSSPGPTQSHYGQCGGIGYSGPTVCASGTTCQVLNPYYSQCL
B2: 268A+411— Leu (protein, UniProt P62694 18-513, looked up, variant R268A R411L)
Exoglucanase 1: B1 Exoglucanase 1 with N251A, R394L
B3: 268_+411A Ile (protein, UniProt P62694 18-513, looked up, variant R268I R411A)
Exoglucanase 1: B1 Exoglucanase 1 with N251I, R394A
B4: 411— Glu (protein, UniProt P62694 18-513, looked up, variant R411E)
Exoglucanase 1: B1 Exoglucanase 1 with N251R, R394E
B5: 268A+411— Val (protein, UniProt P62694 18-513, looked up, variant R268A R411V)
Exoglucanase 1: B1 Exoglucanase 1 with N251A, R394V
B6: 411— Asp (protein, UniProt P62694 18-513, looked up, variant R411D)
Exoglucanase 1: B1 Exoglucanase 1 with N251R, R394D
B7: 268_+411A Arg (protein, UniProt P62694 18-513, looked up, variant R411A)
Exoglucanase 1: B1 Exoglucanase 1 with N251R, R394A
B8: 268A+411— Ile (protein, UniProt P62694 18-513, looked up, variant R268A R411I)
Exoglucanase 1: B1 Exoglucanase 1 with N251A, R394I
B9: 268— Cys (protein, UniProt P62694 18-513, looked up, variant R268C)
Exoglucanase 1: B1 Exoglucanase 1 with N251C
B10: 268A+411— Met (protein, UniProt P62694 18-513, looked up, variant R268A R411M)
Exoglucanase 1: B1 Exoglucanase 1 with N251A, R394M
B11: 411— Cys (protein, UniProt P62694 18-513, looked up, variant R411C)
Exoglucanase 1: B1 Exoglucanase 1 with N251R, R394C
B12: 268_+411A Val (protein, UniProt P62694 18-513, looked up, variant R268V R411A)
Exoglucanase 1: B1 Exoglucanase 1 with N251V, R394A
B13: 268— Thr (protein, UniProt P62694 18-513, looked up, variant R268T)
Exoglucanase 1: B1 Exoglucanase 1 with N251T
B14: 268A+411— Gly (protein, UniProt P62694 18-513, looked up, variant R268A R411G)
Exoglucanase 1: B1 Exoglucanase 1 with N251A, R394G
B15: 268A+411— Glu (protein, UniProt P62694 18-513, looked up, variant R268A R411E)
Exoglucanase 1: B1 Exoglucanase 1 with N251A, R394E
B16: 268_+411A Pro (protein, UniProt P62694 18-513, looked up, variant R268P R411A)
Exoglucanase 1: B1 Exoglucanase 1 with N251P, R394A
B17: 268A+411— Cys (protein, UniProt P62694 18-513, looked up, variant R268A R411C)
Exoglucanase 1: B1 Exoglucanase 1 with N251A, R394C
B18: 268A+411— Trp (protein, UniProt P62694 18-513, looked up, variant R268A R411W)
Exoglucanase 1: B1 Exoglucanase 1 with N251A, R394W
B19: 411— Tyr (protein, UniProt P62694 18-513, looked up, variant R411Y)
Exoglucanase 1: B1 Exoglucanase 1 with N251R, R394Y
B20: 411— Ser (protein, UniProt P62694 18-513, looked up, variant R411S)
Exoglucanase 1: B1 Exoglucanase 1 with N251R, R394S
B21: 268A+411— Asp (protein, UniProt P62694 18-513, looked up, variant R268A R411D)
Exoglucanase 1: B1 Exoglucanase 1 with N251A, R394D
B22: 268_+411A Ala (protein, UniProt P62694 18-513, looked up, variant R268A R411A)
Exoglucanase 1: B1 Exoglucanase 1 with N251A, R394A
B23: 268_+411A Trp (protein, UniProt P62694 18-513, looked up, variant R268W R411A)
Exoglucanase 1: B1 Exoglucanase 1 with N251W, R394A
B24: 268A+411— Ala (protein, UniProt P62694 18-513, looked up, variant R268A R411A)
Exoglucanase 1: B1 Exoglucanase 1 with N251A, R394A
B25: 268— Ser (protein, UniProt P62694 18-513, looked up, variant R268S)
Exoglucanase 1: B1 Exoglucanase 1 with N251S

Assay: 4-MUL assay, specific activity (Example 2)
Format: biochemical
Settings: primary screening; 10 μL enzyme; n=1
Experimental: (§1) CBH I activity on was measured using the 4-MUL assay using gluconolactone to inhibit any BG activity. The fluorogenic 4-MUL substrate (SIGMA) was prepared at 100 mM concentration in DMSO. Assays were run in black 96-well-flat-bottomed plates (Costar) and 4-MU fluorescence was read on a BioTek H4 plate reader (ex/em 365/450 nm). Assay plates were filled with buffer (final concentrations of 100 mM MES, pH 6, 25 mM gluconolactone, with or without cellobiose; cellobiose concentrations are listed with appropriate data sets), to which enzyme mixture was added (10-30 μl, 5 μg/mL final) and then assays were initiated by addition of 4-MUL (0.5 mM final concentration in 100 μl total volume). Enzyme mixtures were either CBH I variants from harvested supernatants or standards. Standards included: a negative control, consisting of harvested supernatant from the CBH I knock-out strain; a positive control, consisting of wild-type CBH I from harvested supernatants; and, a commercial CBH I standard (E-CBHI from Megazymes). Activity standards were run by serial dilution of commercial CBH I from 40 to 0.02 μg/mL and 4-MU (SIGMA, prepared at 20 mM in DMSO) (in dilution increments of 2-fold; all dilutions were made using harvested supernatant from the knock-out control). Kinetic rates were monitored over the first 15 mins following 4-MUL addition; initial rates were calculated based on data in the linear range. After 1 hr, a final endpoint read was taken, both before and after reaction quenching (100 μL of 200 mM Sodium Carbonate, pH 10.0). Activity was calculated for kinetic and endpoint reads; background resulting from the CBH I knock-out supernatant remained negligible. 4MU standard curves and HPLC quantification values were used to calculate specific activity.
The specific activity (SA) of the variant library was evaluated in a secondary 4-MUL assay. […] On average, a mutation at position 268 increases the specific activity by 2.5 fold over that of wild type. A mutation at 268 in combination with 411 is around 1.5-1.6 fold higher than wild-type, on average.

Row | Molecule | SA (μmol 4 MU/min/mg) (MUL Data)
1 | B1 | 13.97
2 | B2 | 1.72
3 | B3 | 0.89
4 | B4 | 0.38
5 | B5 | 1.39
6 | B6 | 0.23
7 | B7 | 0.38
8 | B8 | 0.58
9 | B9 | 0.86
10 | B10 | 0.87
11 | B11 | 0.52
12 | B12 | 1.33
13 | B13 | 0.97
14 | B14 | 0.88
15 | B15 | 0.74
16 | B16 | 1.80
17 | B17 | 1.58
18 | B18 | 3.07
19 | B19 | 0.67
20 | B20 | 0.51
21 | B21 | 2.12
22 | B22 | 0.52
23 | B23 | 0.81
24 | B24 | 1.19
25 | B25 | 1.00

Assay: 4-MUL cellobiose tolerance/inhibition assay, dose-response IC50 (Example 2)
Format: biochemical
Settings: 1 mM cellobiose; primary screening; n=1
Experimental: as §1
Tolerance/inhibition values represent activity ratios and/or percent activity remaining/percent activity decreased in the presence versus the absence of cellobiose. Tolerant variants show less inhibition in the presence of cellobiose as compared to wild type, where an activity ratio of 1 (with vs. without a given concentration of cellobiose) is equivalent to 0% inhibition by cellobiose, or 100% tolerance. The effect of cellobiose on CBH I variant performance was monitored by dose-response in the 4MUL assay. Dose-response curves were generated by assaying variant activity in the presence of 6-8 different cellobiose concentrations ranging up to 100 mM cellobiose. CBH I samples were diluted to 5 μg/mL final concentration or were used directly in the case of protein quantification levels below 5 μg/mL. Half maximal inhibitory concentration (IC50) values were determined by plotting 4MUL activity versus cellobiose concentration and fitting with a four parameter dose-response fitting algorithm, with zero activity (or 100% inhibition) constrained to background activity (as established by CBH I knockout values) and with automatic outlier elimination (on GraphPad Prism 5).
Harvested supernatants from active variant isolates were evaluated for cellobiose tolerance at 1 mM cellobiose in the 4-MUL activity assay. Table 8 lists the tolerance of variants at 1 mM. […] Additional cellobiose concentrations at 0.25, 5, 10, 50, and 100 mM were tested leading to full dose-response curves for which half maximal inhibitory concentration (IC50) values were generated (Table 8). The IC50 values support that the variant library has decreased product inhibition, or increased tolerance to cellobiose, when compared to the wild-type enzyme (WT IC50=0.03 mM; see first entry, Table 8).
In one example, the cellobiose tolerance of the library was explored in more detail by generating dose-response curves and determining half maximal inhibitory concentration (IC50) values, the point at which the enzyme is 50% inhibited.

Row | Molecule | Tolerance at 1 mM CB (MUL Data) [%]
26 | B1 | 41
27 | B2 | 99
28 | B3 | 90
29 | B4 | 76
30 | B5 | 102
31 | B6 | 106
32 | B7 | 72
33 | B8 | 107
34 | B9 | 35
35 | B10 | 97
36 | B11 | 71
37 | B12 | 93
38 | B13 | 42
39 | B14 | 91
40 | B15 | 95
41 | B16 | 80
42 | B17 | 85
43 | B18 | 97
44 | B19 | 85
45 | B20 | 60
46 | B21 | 93
47 | B22 | 65
48 | B23 | 84
49 | B24 | 83
50 | B25 | 45

Same assay, conditions: primary screening; 10 μL enzyme; cellobiose range 0.0001-100 mM; n=1; read-out: IC50 (MUL Data)

Row | Molecule | IC50 [mM]
51 | B1 | 0.67
52 | B2 | 25.1
53 | B3 | 10.4
54 | B4 | 2.95
55 | B5 | 15.1
56 | B6 | 2.08
57 | B7 | 1.6
58 | B8 | 28
59 | B9 | 0.52
60 | B10 | 11.5
61 | B11 | 1.6
62 | B12 | 7.48
63 | B13 | 0.6
64 | B14 | 12.1
65 | B15 | 16.9
66 | B16 | 7.31
67 | B17 | 7.66
68 | B18 | 28.4
69 | B19 | 5.4
70 | B20 | 1.05
71 | B21 | 10.2
72 | B22 | 1.33
73 | B23 | 7.01
74 | B24 | 5.56
75 | B25 | 0.74

Source: patent US20140287471A1, “VARIANT CBH I POLYPEPTIDES WITH REDUCED PRODUCT INHIBITION” (BP CORPORATION NORTN AMERICA INC., priority 2011, published 2014)
